From patent US20210330762A1

Tests used:
Test in all cases: cell-based or functional assay
[1] = target: wild-type microplasmin (WT µPlm), refolded from E. coli µPlg and activated with urokinase (human) (UniProt P00747)
[2] = target: µPlm mutant F587A (human) (UniProt P00747)
[3] = target: µPlm mutant F587D (human) (UniProt P00747)
[4] = target: µPlm mutant F587I (human) (UniProt P00747)
[5] = target: µPlm mutant F587M (human) (UniProt P00747)
[6] = target: µPlm mutant F587N (human) (UniProt P00747)
[7] = target: µPlm mutant F587Q (human) (UniProt P00747)
[8] = target: µPlm mutant F587R (human) (UniProt P00747)
[9] = target: µPlm mutant F587V (human) (UniProt P00747)

IC50 (nM) of α2-AP inhibition of µPlm amidolytic activity (S-2403) [1]: 37.9 nM
IC50 Fold Increase [1]: 1 fold
IC50 (nM) of α2-AP inhibition of µPlm amidolytic activity (S-2403) [2]: 150 nM
IC50 Fold Increase [2]: 4 fold
activity remaining at 2 times concentration of α2-AP (% activity remaining) [2]: 50
IC50 (nM) of α2-AP inhibition of µPlm amidolytic activity (S-2403) [3]: 106 nM
IC50 Fold Increase [3]: 2.8 fold
IC50 (nM) of α2-AP inhibition of µPlm amidolytic activity (S-2403) [4]: 46.4 nM
IC50 Fold Increase [4]: 1.2 fold
IC50 (nM) of α2-AP inhibition of µPlm amidolytic activity (S-2403) [5]: 77.6 nM
IC50 Fold Increase [5]: 2 fold
IC50 (nM) of α2-AP inhibition of µPlm amidolytic activity (S-2403) [6]: 105 nM
IC50 Fold Increase [6]: 2.8 fold
IC50 (nM) of α2-AP inhibition of µPlm amidolytic activity (S-2403) [7]: 63.2 nM
IC50 Fold Increase [7]: 1.7 fold
IC50 (nM) of α2-AP inhibition of µPlm amidolytic activity (S-2403) [8]: 164 nM
IC50 Fold Increase [8]: 4.3 fold
IC50 (nM) of α2-AP inhibition of µPlm amidolytic activity (S-2403) [9]: 65.2 nM
IC50 Fold Increase [9]: 1.7 fold
B1: α2-antiplasmin (α2-AP), purified from human serum (protein)
chain: NQEQVSPLTLLKLGNQEPGGQTALKSPPGVCSRDPTPEQTHRLARAMMAFTADLFSLVAQTSTCPNLILSPLSVALALSHLALGAQNHTLQRLQQVLHAGSGPCLPHLLSRLCQDLGPGAFRLAARMYLQKGFPIKEDFLEQSEQLFGAKPVSLTGKQEDDLANINQWVKEATEGKIQEFLSGLPEDTVLLLLNAIHFQGFWRNKFDPSLTQRDSFHLDEQFTVPVEMMQARTYPLRWFLLEQPEIQVAHFPFKNNMSFVVLVPTHFEWNVSQVLANLSWDTLHPPLVWERPTKVRLPKLYLKHQMDLVATLSQLGLQELFQAPDLRGISEQSLVVSGVQHQSTLELSEVGVEAAAATSIAMSRMSLSSFSVNRPFLFFIFEDTTGLPLFVGSVRNPNPSAPRELKEQQDSPGNKDFLQSLKGFPRGDKLFGPDLKLVPPMEEDYPQFGSPK
